This passage reports EC50 results from patent US20250011423A1 (ASCENDO BIOTECHNOLOGY, published 2025).

The labels stand for the following.
B1: Anti-TREML1 Antibody Clone 23F10 (antibody, V domains shown)
VH: EVQLQQSGPELVRPGASVKVSCKASGYIFTDYVIHWVKQKPGQGLEWFGYINPYTGGPKYSETARGKATLTSDSSSNTAYMVLTSLTSDDSAVYYCTRDFNYYVGAMDFWGQGTSVTVSS
VL: AAVLTQTPLSLPVSLGDQASISCRSTQSLVHSNGNTYVHWYLQKAGQSPKLLIYKVSNRFSGVPDRFSGSGSGTDFTLKISRVEAEDLGVYFCSQSTYVWTFGGGTKLEIE
notes: It was detected with anti-mouse IgG
B2: Anti-TREML1 Antibody Clone 29F4 (antibody, V domains shown)
VH: B1 VH with R65K, D89E
VL: B1 VL with A1G, R24K, S68I
notes: as for B1
B3: Anti-TREML1 Antibody Clone 26A6 (antibody, V domains shown)
VH: EVKLVESGGGLVQPGGSRKLSCAASGFTFSDYGMAWVRQAPGKGPEWIAFISNLAYRIYYADTVTGRFTISRENAKNTLYLEMSSLRSEDSAIYYCVREDYGNNGAMDYWGQGTSVTVSS
VL: DVLMTQTPLSLPVSLGDQASISCRSSQSIVHSNGNTYLEWYLQKPGQSPKLLIYKVSNRFSGVPDRFSGSGSGTDFTLKISRVEAEDLGVYYCFQGSHVPPTFGGGTKLEIK
notes: It was detected with anti-mouse IgG, so it is a mouse antibody
B4: Anti-TREML1 Antibody Clone 18D8 (antibody, V domains shown)
VH: EVQVQQSGPELVNPGASVRLSCKASGYIFTDYVIHWVRQKPGQGLEWIGYMNPYTDGPKYSDKIKDKAILTSDRSSNTVYMELRSLTSEDSAVYFCARDFNYYVGAMDFWGQGTSVTVSS
VL: DVVLTQTPLSLPVSLGDQASVSCRSSQSLLHSNGNTYLHWYLQKPGQSPKLLIYKVSNRFSGVPDRFTGSGSGTDFTLKISRVEAEDLGVYFCSQSTHIWTFGGGTKLEIK
notes: as for B1
B5: Anti-TREML1 Antibody Clone 27D3 (antibody, V domains shown)
VH: DVQLQQSGPELVKPGASVKMSCKASGYTFTEYVIHWVKQRPGQGLEWFGYFNPYTGGSKFNEKFKDKATLTSDRSSNTVYMELYSLTSEDSAVYYCARDFNYYVGAMDYWGQGTSVTVSS
VL: B4 VL with V3A, V21I, L30V, P45S, T68S, G73V, D75E, T97S, K107R
notes: as for B1
B6: Anti-TREML1 Antibody Clone 28A9 (antibody, V domains shown)
VH: EVQLQQSGPELVKPGASVKMSCKASGYTFTNYVMHWVKQKPGQGLEWIGYFNPYNGHAKYSEKFTGKATLTSDRSSSTAYMELNSLTSEDSAVYYCTRDFNYYVGAMDYWGQGTSVTVSS
VL: DVVMTQSPLSLPVNLGDHASISCRSSQSLIHSNGNTYLHWYLQKPGQSPKLLVYQVSKRFSGVPDRFSGSGSGTDFTLKISRVEAEDLGVYFCSQSTHIWTFGGGTTLEIK
notes: as for B1

Positions count from the first letter of the chain named.

Broadly, the EC50 is the concentration giving half of the maximal effect.

For one assay, the target named is T1, human TREML1 ECD (human, UniProt Q86YW5 16-162).
T1 construct: Any tags are not described; also called soluble TREML1; soluble TLT1
T1 sequence: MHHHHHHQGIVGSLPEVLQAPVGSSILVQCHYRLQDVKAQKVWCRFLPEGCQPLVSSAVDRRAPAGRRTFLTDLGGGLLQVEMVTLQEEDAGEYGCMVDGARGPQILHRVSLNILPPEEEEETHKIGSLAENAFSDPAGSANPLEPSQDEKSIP
Nature of the assay: solid phase binding assay (ELISA), antigen coated. On the procedure:
(§1) To investigate the TREML1/I-domain of CD11 b interaction, 5 μg/ml of recombinant I-domain of CD11 b (SEQ ID: 1) and BSA (negative control) proteins were coated separately on 96 well plates and incubated overnight at 4° C. Plates were added the blocking buffer (2% BSA in PBS) to avoid the nonspecific binding for 2 hours (hrs) at room temperature. A serial diluted TREML1 ECD was added and allowed to incubate at room temperature for 2 hrs. 1ug/ml of anti-TREML1 antibody (MAB2394, R&D systems) was added for 1 hr. Next, the secondary antibody with HRP labeling, anti-Rat IgG-HRP, was added to the plate and incubated for 30 minutes at room temperature. Plates were washed thrice with 0.05% tween 20 PBS buffer (PBST) between each step. Finally, TMB substrate was added and incubated for 10-15 min to detect HRP labeling antibody. After that, a stop solution of 1N HCL was added to stop the reaction. Absorbance at OD450/540 nm was measured by a microplate reader. To measure the half-maximal saturation binding of anti-TREML1 antibodies to TREML1, 5 μg/ml of human TREML1 ECD (SEQ ID: 2) or mouse TREML1 ECD (SEQ ID: 3) were coated on 96 well plates and incubated overnight at 4° C. Plates were added the blocking buffer (2% BSA in PBS) to avoid the nonspecific binding for 2 hr at room temperature. A serial diluted anti-TREML1 antibody was added and allowed to incubate at room temperature for 2 hr. Next, the secondary antibody with HRP labeling, anti-mouse IgG-HRP, was added to the plate and incubated for 30 minutes at room temperature. Plates were washed three times with 0.05% tween20 PBS buffer (PBST) between each step. Finally, TMB substrate was added and incubated for 10-15 min to detect HRP labeling antibody. After that, a stop solution of 1N HCL was added to stop the reaction. Absorbance at OD450/540 nm was measured by a microplate reader.
In turn, B1 showed an EC50 of 0.27 nM.

B2 yielded a concentration giving a half-maximal response (EC50) of 0.18 nM.

On to B3, for which the midpoint of the response, the EC50, lay at 0.32 nM. Compared with the last molecule, the EC50 is about 1.8-fold higher.

In the case of B4, a half-maximal response (EC50) required 0.25 nM. The EC50 values of the last two molecules are within 1.5-fold of each other.

B5 showed a concentration for a half-maximal effect (EC50) of 0.31 nM.

In turn, B6 showed an EC50 of 0.3 nM.

The next assay deals with T2, mouse TREML1 ECD (mouse, UniProt Q8K558 21-175).
T2 construct: also called murine TREML1 ECD
T2 sequence: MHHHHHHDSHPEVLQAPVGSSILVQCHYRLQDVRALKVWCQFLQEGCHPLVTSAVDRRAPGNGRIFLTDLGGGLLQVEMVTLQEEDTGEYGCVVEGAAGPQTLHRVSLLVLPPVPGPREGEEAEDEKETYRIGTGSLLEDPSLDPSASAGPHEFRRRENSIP
Description: solid phase binding assay (ELISA), antigen coated. The procedure:
as §1
A general note: ELISA stands for enzyme-linked immunosorbent assay.
Molecule B1 yielded an EC50 of 0.82 nM. That is a sub-nanomolar value.

In the case of B2, it took 0.94 nM to reach a half-maximal effect (EC50).

The molecule B3 yielded an EC50 of 0.4 nM. This EC50 is about 2.3-fold lower than that of the molecule before.

Take B4: a half-maximal effect (EC50) was put at 33.4 nM.

B5 displayed a half-maximal effective concentration (EC50) of 24.9 nM. This EC50 and that of the molecule before are within 1.5-fold of each other.

Turning to B6, the 50% effective concentration (EC50) was 2.48 nM.
